In this assay the target is T1, His-SUDV-NP(34-367) (Sudan virus (SUDV), strain Boniface, UniProt Q9QP77 34-367).
T1 sequence: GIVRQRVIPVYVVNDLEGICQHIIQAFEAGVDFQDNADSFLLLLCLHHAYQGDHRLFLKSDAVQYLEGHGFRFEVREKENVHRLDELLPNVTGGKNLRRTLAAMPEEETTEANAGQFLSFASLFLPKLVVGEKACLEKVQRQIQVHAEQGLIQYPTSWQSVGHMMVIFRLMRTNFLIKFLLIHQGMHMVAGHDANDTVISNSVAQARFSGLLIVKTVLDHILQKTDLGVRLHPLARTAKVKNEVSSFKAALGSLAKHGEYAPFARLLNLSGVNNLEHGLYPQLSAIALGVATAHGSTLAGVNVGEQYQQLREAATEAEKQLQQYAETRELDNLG
Nature of the assay: BLI; […] ([…]), 60 s association, 60 s dissociation; […]; Octet Red. Particulars: both partners purified.

This passage reports Kd results from paper PMC6650547 (mBio, 2019).

As to MQQDRTYRHHGPEVSGWFSEQLMTGKIPLTEVFV [SUDV VP35 wild-type chaperone domain peptide (residues 1 to 34)], the Kd (in general, the constant that tells how readily two partners part at equilibrium) was approximately 3.86 nM.
